The results in this text go back to US20160185837A1 (Medimmune Limited, priority 2013, published 2016).

Read-outs that look alike come from different tables or passages of the source. Some results are limits rather than exact numbers.

What all share (format): cell-based
In test [1] the target is T1, mouse GIP receptor (mGIPr) (Mus musculus, UniProt Q0P543).
T1 construct: expressed in transfected cells; host or cells: HEK293s or CHO cells
T1 sequence (Q0P543 19-460): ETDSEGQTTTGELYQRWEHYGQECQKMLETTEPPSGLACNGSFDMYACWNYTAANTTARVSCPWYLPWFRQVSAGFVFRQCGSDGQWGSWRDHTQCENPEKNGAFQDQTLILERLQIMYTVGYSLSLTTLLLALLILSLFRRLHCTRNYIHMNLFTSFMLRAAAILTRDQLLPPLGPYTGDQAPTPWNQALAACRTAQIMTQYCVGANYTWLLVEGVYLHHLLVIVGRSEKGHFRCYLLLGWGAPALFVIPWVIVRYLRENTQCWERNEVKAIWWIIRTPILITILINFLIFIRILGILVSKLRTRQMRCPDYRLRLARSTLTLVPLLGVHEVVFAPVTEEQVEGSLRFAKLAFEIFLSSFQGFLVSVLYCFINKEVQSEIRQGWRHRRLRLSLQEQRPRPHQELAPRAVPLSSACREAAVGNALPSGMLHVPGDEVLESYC
The test can be described thus: BSA-cAMP assay, cells expressing mouse GIP receptor. The note with it: BSA-cAMP assay, read-out: mGIPr cAMP activity EC50. Summed up: (§1)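 EC50 is the midpoint of an unconstrained 4-parameter logistic fit to HTRF cAMP data, expressed as percent of maximal native agonist response, from two separate occasions. Rodent (mouse, rat) GLP-1R- or GIPR-expressing cells were incubated with compound 30 min at room temperature in 0.1% BSA medium, in duplicate.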
Background: Cyclic AMP is a second messenger, typically raised through Gs and lowered through Gi signalling.

Test [2] has as its target T2, human glucagon receptor (GCGr) (Homo sapiens, UniProt P47871).
T2 construct: expressed in transfected cells; host or cells: HEK293s or CHO cells
The test can be described thus: BSA-cAMP assay, cells expressing human glucagon receptor.

Test [3] addresses T3, human GLP-1 receptor (hGLP-1r) (Homo sapiens, UniProt P43220).
T3 construct: expressed in transfected cells
Put plainly: BSA-cAMP assay, cells expressing human GLP-1 receptor. To be noted: BSA-cAMP assay, read-out: hGLP1r cAMP activity EC50. An outline of the steps:
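EC50 came from an unconstrained 4-parameter logistic fit of HTRF cAMP data expressed as percent of maximal native agonist activation, tested on two occasions. Thawed receptor-expressing cells (hGLP-1r, hGIPr at 0.5×10^5 cells/ml) treated 30 min at room temperature in 0.1% BSA-containing medium; two distinct hGIPr lines.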

The next test concerns the target T4, rat GIP receptor (rGIPr) (Rattus norvegicus, UniProt P43219).
T4 construct: expressed in transfected cells; host or cells: HEK293s or CHO cells
T4 sequence (P43219 19-455): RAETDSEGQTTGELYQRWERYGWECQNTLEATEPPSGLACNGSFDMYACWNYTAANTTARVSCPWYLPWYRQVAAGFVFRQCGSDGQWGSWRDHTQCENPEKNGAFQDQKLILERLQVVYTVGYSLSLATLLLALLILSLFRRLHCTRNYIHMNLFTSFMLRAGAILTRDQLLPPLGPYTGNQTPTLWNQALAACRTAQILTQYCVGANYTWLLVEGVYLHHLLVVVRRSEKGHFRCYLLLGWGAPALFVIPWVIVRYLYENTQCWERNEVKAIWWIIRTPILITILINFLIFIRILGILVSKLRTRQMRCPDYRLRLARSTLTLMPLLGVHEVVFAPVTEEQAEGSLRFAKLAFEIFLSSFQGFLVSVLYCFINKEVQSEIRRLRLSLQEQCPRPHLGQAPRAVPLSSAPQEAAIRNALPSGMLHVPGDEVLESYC
Put plainly: BSA-cAMP assay, cells expressing rat GIP receptor. To be noted: BSA-cAMP assay, read-out: rGIPr cAMP activity EC50. An outline of the steps:
as §1

Test [4] addresses T5, mouse GLP-1 receptor (mGLP-1r) (Mus musculus, UniProt O35659).
T5 construct: expressed in transfected cells; host or cells: HEK293s or CHO cells
T5 sequence (O35659 22-463): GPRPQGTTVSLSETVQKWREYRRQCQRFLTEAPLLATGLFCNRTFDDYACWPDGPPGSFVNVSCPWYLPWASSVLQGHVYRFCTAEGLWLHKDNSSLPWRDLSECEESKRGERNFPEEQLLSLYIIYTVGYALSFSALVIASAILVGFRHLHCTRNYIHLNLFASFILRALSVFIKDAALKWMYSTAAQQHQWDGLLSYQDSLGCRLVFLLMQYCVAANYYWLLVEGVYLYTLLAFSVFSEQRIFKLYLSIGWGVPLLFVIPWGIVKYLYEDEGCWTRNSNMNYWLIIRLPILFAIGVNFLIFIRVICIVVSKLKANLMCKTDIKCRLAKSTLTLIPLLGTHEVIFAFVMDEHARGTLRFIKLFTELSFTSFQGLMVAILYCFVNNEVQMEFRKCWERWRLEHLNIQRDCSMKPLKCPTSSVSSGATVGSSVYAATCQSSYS
The test can be described thus: BSA-cAMP assay, cells expressing mouse GLP-1 receptor. The note with it: BSA-cAMP assay, read-out: mGLP1r cAMP activity EC50. Summed up:
as §1

[5] abbreviates: Batch 1, read-out: hGCGr cAMP activity EC50.
[6] abbreviates: Batch 2, read-out: hGCGr cAMP activity EC50.

T2 sequence (P47871 26-477): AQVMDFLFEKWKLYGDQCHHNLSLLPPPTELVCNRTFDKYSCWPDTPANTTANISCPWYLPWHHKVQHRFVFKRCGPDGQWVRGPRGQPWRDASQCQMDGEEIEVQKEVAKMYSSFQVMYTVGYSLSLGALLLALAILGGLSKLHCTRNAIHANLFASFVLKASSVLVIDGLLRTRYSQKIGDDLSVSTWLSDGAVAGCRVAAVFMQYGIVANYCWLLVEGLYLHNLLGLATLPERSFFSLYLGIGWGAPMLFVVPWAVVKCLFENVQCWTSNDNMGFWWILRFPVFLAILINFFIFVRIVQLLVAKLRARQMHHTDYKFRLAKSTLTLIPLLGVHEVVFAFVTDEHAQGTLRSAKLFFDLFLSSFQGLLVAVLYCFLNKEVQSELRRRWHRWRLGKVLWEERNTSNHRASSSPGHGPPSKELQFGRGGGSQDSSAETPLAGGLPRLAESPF
T3 sequence (P43220 24-463): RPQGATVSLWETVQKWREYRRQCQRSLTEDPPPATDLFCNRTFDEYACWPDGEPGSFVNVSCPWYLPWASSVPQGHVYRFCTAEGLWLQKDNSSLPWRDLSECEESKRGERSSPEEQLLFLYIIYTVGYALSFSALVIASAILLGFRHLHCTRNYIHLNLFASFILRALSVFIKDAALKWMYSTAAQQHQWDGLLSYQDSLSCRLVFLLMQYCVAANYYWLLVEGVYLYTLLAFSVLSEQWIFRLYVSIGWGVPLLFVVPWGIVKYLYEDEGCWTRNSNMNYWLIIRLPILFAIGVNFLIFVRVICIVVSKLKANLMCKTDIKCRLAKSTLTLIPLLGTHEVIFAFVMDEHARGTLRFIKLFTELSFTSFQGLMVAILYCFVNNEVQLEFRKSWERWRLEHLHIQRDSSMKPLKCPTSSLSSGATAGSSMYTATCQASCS

“IP320 (YSEGTFTSDYAAAAEAAAAAAFAAWLAAAAGGGGGSGGGGSGGGGSGGGGSACPPC)”: the EC50 was > 3930 nM in test [1] (Batch 1); 3800 nM in test [2] (setting [5]); 3800 nM in test [2] (setting [6]); 160 nM in test [3] (Batch 1); 260 nM in test [3] (Batch 2); 130 nM with rat GIP receptor (rGIPr) (Batch 1). The EC50 in test [4] (Batch 1) turned out to be 2500 nM.
Turning to “IP396 (YSEGTFTSDYSKLLERQAIDEFIAWLLKGGGGGGGSGGGGSGGGGSGGGGSACPPC)”, the EC50 in test [1] (Batch 1) is 0.28 nM; in test [1] (Batch 2), 0.78 nM; in test [2] (setting [5]) it was 330 nM; in test [2] (setting [6]), 250 nM; in test [3] (Batch 1), 0.11 nM; in test [3] (Batch 2), 0.11 nM. Moreover, the EC50 was 0.19 nM with rat GIP receptor (rGIPr) (Batch 1), 0.014 nM in the test with rat GIP receptor (rGIPr) (Batch 2), 1.2 nM in test [4] (Batch 1) and 2.5 nM in test [4] (Batch 2).
Regarding “IP412: Fc fusion, IgG1-TM, SEQ ID NO:387; agonist peptide YSEGTFTSDYSKLLEEEANRLFIEWLLAGG (YSEGTFTSDYSKLLEEEANRLFIEWLLAGGGGGGSGGGGSGGGGSGGGGSATHTCPPC)”, the EC50 was 0.4 nM in test [1] (Batch 1); > 440 nM in test [2] (setting [5]); 0.073 nM in test [3] (Batch 1); 0.018 nM with rat GIP receptor (rGIPr) (Batch 1); 1.2 nM in test [4] (Batch 1).

For orientation: EC50 means the midpoint of the concentration-response curve.
